In PMC10827105:

Legend:
[1] = molecular target: CifRTR (CifR C99T/C181R) (Pseudomonas aeruginosa); assay: SEC
[2] = molecular target: CifRTR (CifR C99T/C181R) (Pseudomonas aeruginosa); assay: SEC + AUC
CifRTR-C107S = CifRTR-C107S (Pseudomonas aeruginosa, UniProt A0A0H2ZCS5 1-196, C99T;C107S;C181R); assay: X-ray crystallography
CifRTR [3] = molecular target: T1, CifRTR (Pseudomonas aeruginosa, UniProt A0A0H2ZCS5 1-196, C99T;C181R); assay: SEC
CifRTR [4] = molecular target: T1, CifRTR; assay: EMSA
CifRTR [5] = molecular target: T1, CifRTR; assay: EMSA; remark: listed apart in the source

## CifRTR (CifR C99T/C181R) (natural protein)
[1]
  stoichiometry N: 2
[2]
  stoichiometry N: 2

B1: cifR-prox dsDNA26L (dsDNA)
DNA 1: TTATTTGTATCGATCACTATAAATTT
DNA 2: AAATTTATAGTGATCGATACAAATAA
CifRTR-C107S
  binding result: binds
CifRTR [3]
  binding result: binds

B2: cifR-prox dsDNA23 (dsDNA)
DNA 1: TATTTGTATCGATCACTATAAAT
DNA 2: ATTTATAGTGATCGATACAAATA
CifRTR [4]
  binding result: binds

B3: cifR-prox dsDNA36 (dsDNA)
DNA 1: CCTCCATTATTTGTATCGATCACTATAAATTTACTT
DNA 2: AAGTAAATTTATAGTGATCGATACAAATAATGGAGG
CifRTR [5]
  binding result: binds
